{"source": "patent US20210002621", "about": "“CTLA4 HOMING ENDONUCLEASE VARIANTS, COMPOSITIONS, AND METHODS OF USE” (bluebird bio, Inc., published 2021)", "binders": {"B1": {"name": "CTLA4 exon 2 HE target site (dsDNA)", "DNA 1": "TGGAGATGCATACTCACACACA", "DNA 2": "TGTGTGTGAGTATGCATCTCCA"}}, "key": {"[1]": {"target": "T1, CTLA4.B3.B6.D5 I-OnuI HE variant (Ophiostoma novo-ulmi)", "T1 chain": "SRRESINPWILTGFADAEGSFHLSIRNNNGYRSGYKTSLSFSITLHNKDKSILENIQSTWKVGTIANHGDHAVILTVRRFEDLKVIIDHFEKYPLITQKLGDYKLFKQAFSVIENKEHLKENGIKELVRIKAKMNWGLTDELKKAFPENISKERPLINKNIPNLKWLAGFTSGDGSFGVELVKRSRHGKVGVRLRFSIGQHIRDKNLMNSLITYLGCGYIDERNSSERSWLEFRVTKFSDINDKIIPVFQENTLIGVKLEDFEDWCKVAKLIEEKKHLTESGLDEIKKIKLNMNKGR", "experiment": "flow; sub-nanomolar affinity; yeast surface affinity titration, value only in figure", "settings": "tags: yeast surface display"}, "[2]": {"target": "T1, CTLA4.B3.B6.D5 I-OnuI HE variant", "experiment": "cell_activity; chromosomal iRFP reporter in HEK 293T", "procedure": "(§1) The activity of reprogrammed I-OnuI HEs that target exon 2 of the CTLA4 gene was measured using a chromosomally integrated fluorescent reporter system (Certo et. al., 2011). Fully reprogrammed I-OnuI HEs that bind and cleave the CTLA4 target sequence (SEQ ID NO: 13) were cloned into mammalian expression plasmids and then individually transfected into a HEK 293T […] cell line that contained the CTLA4 target sequence upstream of an out-of-frame gene encoding the fluorescent iRFP protein. Cleavage of the embedded target site by the HE and the accumulation of indels following DNA repair via the non-homologous end joining (NHEJ) pathway results in approximately one out of three repaired loci placing the fluorescent reporter gene back “in-frame”. The percentage of iRFP fluorescing HEK 293T cells is therefore used a readout of endonuclease activity at the chromosomally embedded target sequence. […] FIG. 3 (left panel).\n(§2) A secondary I-OnuI variant library was generated by performing random mutagenesis on the CTLA4.B3 HE variant (SEQ ID NO: 6). Display-based flow sorting was performed under more stringent cleavage conditions to isolate variants with improved catalytic efficiency. […] FIG. 3 (middle panel). […] FIG. 3 (right panel)."}, "[3]": {"target": "T2, CTLA4.B3.B6 I-OnuI HE variant (Ophiostoma novo-ulmi)", "T2 chain": "T1 chain with R228K", "experiment": "cell_activity; chromosomal iRFP reporter in HEK 293T", "procedure": "as §1, §2"}}, "note": "Where a chain is given by its changes, count along the chain named."}
{"binder": "B1", "values": [{"measurement": "Kd", "setting": "[1]", "value": "< 1", "unit": "nM"}, {"measurement": "activity", "setting": "[2]", "value": "~2", "unit": "fold vs CTLA4.B3.B6"}, {"measurement": "activity", "setting": "[3]", "value": "~3", "unit": "fold vs CTLA4.B3"}]}
